From patent US20200399712A1, “COMPOSITIONS AND METHODS FOR THE DIAGNOSIS AND DETECTION OF TUMORS AND CANCER PROGNOSIS” (priority 2018, published 2020)
“Also recorded” adds a separate entry of the source. Marks after values point to notes of the source that are not given here.

Columns and labels:
[1] = tested on: HPV-16 genome; experiment: qPCR sensitivity against HPV-16 copy number (known-copy HPV-16 DNA among 10 ng normal human DNA)
Text: (§1) All samples were run in triplicates.
To seek the most promising primer-probe set in the viewpoint of sensitivity, Applicants evaluated the sensitivity analysis for these candidate primer-probe sets. […] Therefore, the sensitivity of E6 (FIG. 3A) and E7 (FIG. 3B) was also 30 copies. […] The candidate primer-probe sets were the “Min-4” (FIG. 3C), “Min-5” (FIG. 3D), “Min-6” (FIG. 3E), “Max-10” (FIG. 3F), “E6-11” (FIG. 3G), “E6-13” (FIG. 3H), respectively.
In addition, Applicants performed sensitivity analysis to identify the most sensitive primer/probe set from among the candidate sets.
To validate the function of primer/probe sets, Applicants calculated the slope of delta Rn against cycle threshold for HPV-16 copy number detection from defined HPV copy number DNA derived from CaSki cell line.

[2] = tested on: HPV-16; experiment: qPCR on 20 ng DNA from saliva samples of HPV-HNSCC patients; settings: 28 HPV-HNSCC saliva samples
Description: as §1
The sensitivity of detection from saliva 20 ng DNA samples is 32.1% (9/28) in E6 primer-probe sets, 42.9% (12/28) in E7 primer-probe sets, 35.7% (10/28) in “Min-5” primer-probe sets, 46.4% (13/28) in “Max-10” primer-probe sets. The sensitivity of combination of “5” and “10” is 50% (14/28) and that of E6 and E7 is 42.9% (12/28). By the standard curve analysis, the copy numbers that detected by “Max-10” primer-probe sets were the highest in these 4 primer-probe sets. The slope of standard curve is −3.5 in “Min-5” primer-probe sets when delta Rn is plotted against cycle threshold (FIG. 5).

[3] = tested on: HPV16 DNA; experiment: CLIA test for HPV16, performance characteristics in plasma
Text: (§2) These primer/probe sets were adapted for development of a CLIA test for HPV16 DNA detection in plasma and salivary rinses (Table 2). Test performance was improved, so that analytical sensitivity in salivary rinse spike in assays ranges from 2.5-5.0 DNA copies/mL with 100% specificity for the three primer/probe sets that are now part of the component assay, resulting in a five-fold improvement in analytic sensitivity that is in the range of sensitivity found in sequence based liquid biopsy methods (FIG. 23, Table 2). Additionally, the assays can be used quantitatively, with measuring ranges between 2.0 log10-7.0 log10 copies/mL.

[4] = tested on: HPV16 DNA; experiment: CLIA test for HPV16, performance characteristics in salivary rinse
Text: as §2

[5] = tested on: HPV DNA; experiment: CLIA HPV test pilot study on saliva rinse samples from HPV-positive HNSCC patients and non-cancer controls; design: species or system HPV16; HPV16 DNA measured by CLIA HPV test: unit not given here
Description: As a final validation, Applicants a small pilot study was performed on a blinded set of saliva rinse samples from 28 patients with HPV-positive HNSCC and 15 salivary rinses from non-cancer controls. […] The sensitivity increased to 96% when all three sets were used (Table 3).

[6] = tested on: HPV-16; experiment: qPCR sensitivity against HPV-HNSCC tumor samples diluted among 10 ng normal human DNA
Description: Quantitative real-time polymerase chain reaction (qRT-PCR) was used to examine the threshold in each experiment. qRT-PCR was performed using Quant Studio 6 Flex Real-Time PCR System (Thermo Fisher Scientific). All samples were run in triplicates. HPV-16 viral amplicon copy number estimations were developed using the CaSki cell line. After amplification of the amplicon by PCR, DNA concentration was calculated by weight NanoDrop®, then converted to DNA copy number by calculation based on the molecular weight of the double stranded amplicon. […] In the other 32 HPV-HNSCC cohort, Applicants diluted the tumor sample to 990 pg, 198 pg, 99 pg, 39.6 pg, 7.9 pg, 3.2 pg, and 1.6 pg of amount tumor weight, (correspond to 150, 30, 15, 6, 1.2, 0.6, and 0.3 cells: assumption that 1 tumor cell have 6.6 pg DNA (=3*10^9 (human DNA genome bp)*2 (diploid)*1.67*10^(−24) g (weight/Dalton))) combined with 10 ng normal leukocyte human DNA and compare the threshold of each primer-probe sets.
In this regard, Applicants investigated the other 32 HPV-HNSCC tumor samples. From the assumption that 1 cell tumor DNA contain 6.6 pg DNA, Applicants made the dilution series by DNA derived from normal lymphocyte as described and decide the threshold for each primer-probe set.
Furthermore, to determine whether these designed primer/probe sets also have a high sensitivity in a separate cohort, Applicants performed PCR in a validation cohort of 32 additional primary tumor samples with validated presence of HPV-16. Applicants prepared serial of dilutions of tumor DNA in normal lymphocyte DNA from non-cancer individuals and determined the threshold for each primer/probe set and defined amplification thresholds expressed in number of tumor cells for each sample (Table 5).

[7] = among 10 ng normal DNA, triplicate qPCR
[8] = samples tested 3 times, 10 ng DNA from healthy individual
[9] = first template ('... HPV16', word is an image)
[10] = second template (name is an image)
[11] = tumor DNA dilution, fraction of 32 samples

B1: E7: previously designed (historical) HPV-16 E7 primers and Taqman probe, SEQ ID NO: 10-12; part of CLIA test (nucleic acid)
DNA 1: CCGGACAGAGCCCATTACAA
DNA 2: CGAATGTCTACGTGTGTGCTTTG
DNA 3: CGCACAACCGAAGCGTAGAGTCACACT
modifications: Taqman probe, labels not given here
notes: part of CLIA test
Which results are given for B1?
sensitivity (HPV-16 copies) ([1]; HPV-16 genome among normal 10 ng DNA samples, consistent triplicate reaction): 30 copies; reaction under 10 copies of HPV-16 genome [1, 7]: reacted inconsistently; reaction under 30 copies of HPV-16 genome [1, 7]: reacted consistently triplicate; also recorded: reacted consistently in triplicates; number of reactions against 10 HPV-16 copies [1, 8]: 2 reactions; number of reactions under 30 HPV-16 copies [1, 8]: 3 reactions; sensitivity of detection from saliva 20 ng DNA samples [2]: 42.9%; Accuracy - Plasma Blind Panel, Negative % Agreement [3]: 90%; Accuracy - Plasma Blind Panel, Positive % Agreement [3]: 100%; Accuracy - Plasma Blind Panel, Total % Agreement [3]: 97%; Measuring Range - Plasma ([3]; first template ('... HPV16')): 2.0-8.5 log10 log10 copies/mL; Limit of Detection - Plasma [3, 9]: 1.5 copies/mL; Limit of Detection - Plasma [3, 10]: 13 copies/mL; Measuring Range - Plasma [3, 10]: 2.0-5.0 log10 log10 copies/mL; Measuring Range - Salivary Rinse ([4]; first template ('... HPV16')): 2.0-8.5 log10 log10 copies/mL; Limit of Detection - Salivary rinse [4, 9]: 3 copies/mL; Limit of Detection - Salivary rinse [4, 10]: 23 copies/mL; Measuring Range - Salivary Rinse [4, 10]: 2.0-6.5 log10 log10 copies/mL; sensitivity for the detection of HPV DNA in saliva rinse samples ([5]; 28 patients with HPV-positive HNSCC): 82%; HPV16 DNA measured by CLIA HPV test ([5]; saliva sample from HPV-HNSCC patient # 1): 328000; HPV16 DNA measured by CLIA HPV test ([5]; saliva sample from HPV-HNSCC patient # 2): 50000; HPV16 DNA measured by CLIA HPV test ([5]; saliva sample from HPV-HNSCC patient # 3): 48500; HPV16 DNA measured by CLIA HPV test ([5]; saliva sample from HPV-HNSCC patient # 4): 46500; HPV16 DNA measured by CLIA HPV test ([5]; saliva sample from HPV-HNSCC patient # 5): 14700; HPV16 DNA measured by CLIA HPV test ([5]; saliva sample from HPV-HNSCC patient # 6): 7320; HPV16 DNA measured by CLIA HPV test ([5]; saliva sample from HPV-HNSCC patient # 7): 4950; HPV16 DNA measured by CLIA HPV test ([5]; saliva sample from HPV-HNSCC patient # 8): 1570; HPV16 DNA measured by CLIA HPV test ([5]; saliva sample from HPV-HNSCC patient # 9): 1020; HPV16 DNA measured by CLIA HPV test ([5]; saliva sample from HPV-HNSCC patient # 10): 981; HPV16 DNA measured by CLIA HPV test ([5]; saliva sample from HPV-HNSCC patient # 11): 521; HPV16 DNA measured by CLIA HPV test ([5]; saliva sample from HPV-HNSCC patient # 12): 155; HPV16 DNA measured by CLIA HPV test ([5]; saliva sample from HPV-HNSCC patient # 13): 140; HPV16 DNA measured by CLIA HPV test ([5]; saliva sample from HPV-HNSCC patient # 14): 82.7; HPV16 DNA measured by CLIA HPV test ([5]; saliva sample from HPV-HNSCC patient # 15): 62.6; HPV16 DNA measured by CLIA HPV test ([5]; saliva sample from HPV-HNSCC patient # 16): 41.2; HPV16 DNA measured by CLIA HPV test ([5]; saliva sample from HPV-HNSCC patient # 17): 14.1; HPV16 DNA measured by CLIA HPV test ([5]; saliva sample from HPV-HNSCC patient # 18): 9.69; HPV16 DNA measured by CLIA HPV test ([5]; saliva sample from HPV-HNSCC patient # 19): 8.17; HPV16 DNA measured by CLIA HPV test ([5]; saliva sample from HPV-HNSCC patient # 20): 6.5; HPV16 DNA measured by CLIA HPV test ([5]; saliva sample from HPV-HNSCC patient # 21): 4.02; HPV16 DNA measured by CLIA HPV test ([5]; saliva sample from HPV-HNSCC patient # 22): 2.52; HPV16 DNA measured by CLIA HPV test ([5]; saliva sample from HPV-HNSCC patient # 23): 0.986; sensitivity under 100 cells ([6]; 32 HPV-HNSCC tumor samples): 96.9%; sensitivity under single cells ([6]; 32 HPV-HNSCC tumor samples, 6.6 pg DNA): 9.4%; sensitivity under 10 cells ([6]; 32 HPV-HNSCC tumor samples, 66 pg DNA): 68.8%; Threshold of tumor cell numbers for HPV-16 detection ([6]; Sample # 1): 60.0 tumor cells; Threshold of tumor cell numbers for HPV-16 detection ([6]; Sample # 2): 30.0 tumor cells; Threshold of tumor cell numbers for HPV-16 detection ([6]; Sample # 3): 30.0 tumor cells; Threshold of tumor cell numbers for HPV-16 detection ([6]; Sample # 4): 150.0 tumor cells; Threshold of tumor cell numbers for HPV-16 detection ([6]; Sample # 5): 6.0 tumor cells; Threshold of tumor cell numbers for HPV-16 detection ([6]; Sample # 6): 6.0 tumor cells; Threshold of tumor cell numbers for HPV-16 detection ([6]; Sample # 7): 30.0 tumor cells; Threshold of tumor cell numbers for HPV-16 detection ([6]; Sample # 8): 15.0 tumor cells; Threshold of tumor cell numbers for HPV-16 detection ([6]; Sample # 9): 30.0 tumor cells; Threshold of tumor cell numbers for HPV-16 detection ([6]; Sample # 10): 6.0 tumor cells; Threshold of tumor cell numbers for HPV-16 detection ([6]; Sample # 11): 6.0 tumor cells; Threshold of tumor cell numbers for HPV-16 detection ([6]; Sample # 12): 30.0 tumor cells; Threshold of tumor cell numbers for HPV-16 detection ([6]; Sample # 13): 6.0 tumor cells; Threshold of tumor cell numbers for HPV-16 detection ([6]; Sample # 14): 6.0 tumor cells; Threshold of tumor cell numbers for HPV-16 detection ([6]; Sample # 15): 6.0 tumor cells; Threshold of tumor cell numbers for HPV-16 detection ([6]; Sample # 16): 6.0 tumor cells; Threshold of tumor cell numbers for HPV-16 detection ([6]; Sample # 17): 1.2 tumor cells; Threshold of tumor cell numbers for HPV-16 detection ([6]; Sample # 18): 6.0 tumor cells; Threshold of tumor cell numbers for HPV-16 detection ([6]; Sample # 19): 1.2 tumor cells; Threshold of tumor cell numbers for HPV-16 detection ([6]; Sample # 20): 1.2 tumor cells; Threshold of tumor cell numbers for HPV-16 detection ([6]; Sample # 21): 1.2 tumor cells; Threshold of tumor cell numbers for HPV-16 detection ([6]; Sample # 22): 1.2 tumor cells; Threshold of tumor cell numbers for HPV-16 detection ([6]; Sample # 23): 1.2 tumor cells; Threshold of tumor cell numbers for HPV-16 detection ([6]; Sample # 24): 1.2 tumor cells; Threshold of tumor cell numbers for HPV-16 detection ([6]; Sample # 25): 0.3 tumor cells; Threshold of tumor cell numbers for HPV-16 detection ([6]; Sample # 26): 0.3 tumor cells; Threshold of tumor cell numbers for HPV-16 detection ([6]; Sample # 27): 1.0 tumor cells; Threshold of tumor cell numbers for HPV-16 detection ([6]; Sample # 28): 1.0 tumor cells; Threshold of tumor cell numbers for HPV-16 detection ([6]; Sample # 29): 3.0 tumor cells; Threshold of tumor cell numbers for HPV-16 detection ([6]; Sample # 30): 15.0 tumor cells; Threshold of tumor cell numbers for HPV-16 detection ([6]; Sample # 31): 0.6 tumor cells; Threshold of tumor cell numbers for HPV-16 detection ([6]; Sample # 32): 15.0 tumor cells; Sensitivity, 1 cell [6, 11]: 0.094; Sensitivity, 3 cells [6, 11]: 0.375; Sensitivity, 10 cells [6, 11]: 0.688; Sensitivity, 30 cells [6, 11]: 0.938*; Sensitivity, 100 cells [6, 11]: 0.969*
